Assay results from article PMC5947699, “Cloning, purification and structure determination of the HIV integrase-binding domain of lens epithelium-derived growth factor” (Acta Crystallographica. Section F, Structural Biology …, 2018).

Molecular target: the molecule itself
Assay: AUC; sedimentation velocity, twofold dilution series starting from 6.5 mg/ml, 50 000 rev/min, 20°C, absorbance (280 nm) and interference optics, c(s) model in SEDFIT; buffer similar to that used for crystallization; monomer to dimer; self-association not saturated

B1: HIV integrase-binding domain (IBD) of lens epithelium-derived growth factor (LEDGF)/p75, His tag cleaved (domain or fragment, human)
chain: GGSMGSGGGGSGGGGSGGGGAAAMETSMDSRLQRIHAEIKNSLKIDNLDVNRCIEALDELASLQVTMQQAQKHTEMITTLKKIRRFKVSQVIMEKSTMLYNKFKNMFLVGE
notes: 24-amino-acid linker ending with methionine that precedes Glu345 of the IBD; left on the protein after TEV cleavage (ENLYFQ/G); Intact mass 11 882 Da measured against 11 881.66 Da calculated; The linker was not visible in the electron density; also called IBD protein; free IBD; source: E. coli B834 (DE3), purified (IMAC, SEC, TEV cleavage, reverse IMAC) for crystallization; E. coli C41 (DE3), …
Kd: ~2000 µM | stoichiometry N: 2
